Assays:
HEK 293 = assay: FACS analysis of cell surface binding, BARB4 and commercial TAF 15 antibody; conditions: BARB4 100 ug/ml, TAF 15 antibody 25 μg/ml
Experimental: (§1) To further validate BARB4 target protein TAF 15, BARB4 and a commercial TAF 15 antibody (anti-human TAFII p68, Santa Cruz Biotechnology, sc-81121) were analyzed for binding to BxPC-3, HEK 293, A549 and HeLa cell lines. In brief, cells were trypsinized with cell dissociation solution (Sigma C5789), resuspended in complete medium (RPMI 1640, PAA, E15-039, 10% Fetal bovine serum, PAA, A15-151 and 1% Glutamine, PAA, M11-004) and set on 2×10^5/ml. After 30 minutes on ice, cells were dispersed at 1 ml per FACS-tube and washed once with ice-cold PBS by centrifugation with 500 g and 4° C. Staining was done with BARB4 (100 ug/ml) or the commercial TAF 15 (25 μg/ml) IgG antibodies, control IgGs (IgG lambda, or mouse IgG), or without antibody in 200 μl PBS. Cells were incubated with 25 μg/ml antibody in 100 μl for 30 minutes on ice, then washed with ice cold PBS and secondary antibody (anti mouse IgG-FITC, dianova 115-095-008) was applied at a dilution of 1:50 in 200 μl per tube. After another 30 minutes of incubation in the dark, cells were washed twice with PBS and analyzed by FACS. […] BARB4 target protein TAF 15 validation was then analyzed by immunoprecipitation of MKNcell extracts with BARB4 and subsequent Western blotting with either BARB4 or anti-TAF 15 antibodies (Biomol, A300-308A; or Aviva, ARP30111_T100).

HeLa = assay: as above; conditions: BARB4 100 ug/ml, TAF 15 antibody 25 μg/ml
Experimental: as §1

[1] = test system: membrane preparations of tumor cell line BXPC-3; assay: Western blot on membrane preparations; assay type: binding, human; conditions: BXPC-3 membrane preparation; FIG. 6A
Experimental: For BARB4 target assays the established, human pancreatic adenocarcinoma cell line BXPC-3 was used. The adherent cells were grown to a confluence of about 90% in RPMI 1640 culture medium (PAA, Vienna) supplemented with 10% (V/V) FCS, 1% (V/V) glutamine and 1% (V/V) streptomycin/penicillin at 37° C. and a 7% CO2 atmosphere (HERA cell incubator, Heraeus, Hanau). Sterile tissue culture dishes 145/20 (greiner bio-one, Frickenhausen) were prepared with 1 ml cell suspension containing 2−3×10^6 cells/ml (suspension medium is equivalent to culture medium described above) and 50 ml supplemented RPMI 1640 medium. After three or four days the carcinoma cells could be harvested for membrane extract preparation. For this purpose, BXPC-3 cells were washed with phosphate-buffered saline (PBS; containing 0.137 M NaCl, 0.027 M KCl, 0.065 M Na2HPO4×2H2O, 0.015 M KH2PO4) and the adherent cells were scraped off the tissue culture dishes. The cell suspension was centrifuged (1500×g for 5 minutes at room temperature). The supernatant was removed and the pellet was washed again with PBS followed by a further centrifugation step (1500×g, 5 minutes at room temperature). Afterwards the supernatant was removed again. A single cell pellet includes carcinoma cells from 10 tissue culture dishes. It was immediately used for membrane extract preparation or stored at −20° C. […]

B1: BARB4: human IgG antibody produced by hybridoma DSMZ Deposit No. DSM ACC2876; heavy chain SEQ ID NOs:1, 3, 5, 7, light chain SEQ ID NO:9 (antibody, V domains shown)
VH: QVQLVESGGGVVQPGRSLRLSCAASGFRFTTHGMHWVRQAPGKGLEWVAVISYNGRNKYYADYVNGRFTISRDDSRDTVFLQMNSLRPEDTAMYYCAKVRGDGYGDYGYFDYWGHGTLVSVSS
VL: QSALTQPRSVSGSPGQSVTISCTGTYNYVSWYQQHPGKAPKLMIFDVSRRSSGVPDRFSGSKSGNTASLTISGLQAEDEADYYCCSYGGTYLYVFGTGTTVTVLGQ
- FACS binding to the cell surface (HEK 293): binding
- FACS binding to the cell surface (HeLa): binding
- binding on Western blots with membrane preparations [1]: binds to a membrane molecule with a relative molecular mass between 70 and 85 kD

— patent US20090291083A1, “BARB4 TARGET, ANTIBODY DESIGNATED BARB4, BARB4 RELATED ANTIBODIES, AND METHODS OF MAKING AND USING SAME” (PATRYS LIMITED, priority 2008, published 2009)
